From PMC11282748

Molecular target: foldase protein PrsA of Staphylococcus aureus MW2 (recombinant, without signal peptide) (Staphylococcus aureus MW2)
Assay: SEC-MALS; Superdex 200 Increase 10/300; ~1 mg of protein loaded; 50 mM Tris-HCl, 150 mM NaCl, 2.5% (v/v) glycerol, pH 7.8; flow 0.4 ml/min

foldase protein PrsA of Staphylococcus aureus MW2 (recombinant, without signal peptide) (natural protein)
stoichiometry N: 2
